Changes are numbered by the printed parent chain.

To fix the notation:
B1: 367_C01 (antibody, V domains shown)
VH: EVQLLESGGGLVQPGGSLRLSCAASGFTFDDYSMNWVRQAPGKGLEWVSGINYNGGYKSYADSVKGRFTISRDNSKNTLYLQMNSLRAEDTAVYYCARSANWHDTHLDYWGQGTLVTVSS
VL: DIQMTQSPSSLSASVGDRVTITCRASQSILTYLNWYQQKPGKAPKLVIYATTSLHSGVPSRFSGSGSGTDFTLTISSLQPEDFATYYCQQSYDTPLTFGGGTKVEIK
B2: 367_D10 (antibody, V domains shown)
VH: B1 VH with D31S, S33G, G50N, K58T, H106A
VL: B1 VL with L30I, T31S, T51A, L54R, H55A
B3: 367_E01 (antibody, V domains shown)
VH: B1 VH with D30S, D31S, S33G, S49A, H106A
VL: B1 VL with T31S, L33V, V47L, L54R, H55A, T94L
B4: 367_C05 (antibody, V domains shown)
VH: B1 VH with S33G, G50S, K58T, S59G
VL: B1 VL with T31S, L33V, T51A, L54R, T94L
B5: 373_H09 (antibody, V domains shown)
VH: B1 VH with D30S, D31S, S33G, S49A, G50S, G55S, S99G
VL: B1 VL with L30I, T51A, L54R, H55A, Y92D, T94S
B6: 373_C07 (antibody, V domains shown)
VH: B1 VH with D31S, S49A, G55S, K58T, S99G
VL: B1 VL with T51A, L54R, H55A, D93E
B7: 373_F11 (antibody, V domains shown)
VH: B1 VH with D31S, S33G, N35H, G55S, K58T, S99G
VL: B1 VL with L30V, T31S, L33V, V47L, T51A, L54R, H55A, D93N, T94L
B8: 371_H05 (antibody, V domains shown)
VH: B1 VH with D30S, D31S, S33G, G55S, S99G, H106A
VL: B1 VL with L30I, T31S, V47L, T51A, H55A, D93S, T94L
B9: 371_H04 (antibody, V domains shown)
VH: B1 VH with D30S, D31S, S33G, G50N, K58T, S59G, S99G, H106A
VL: B1 VL with V47L, T51A, L54R, H55A, D93N, T94S
B10: 373_A11 (antibody, V domains shown)
VH: B1 VH with D30S, D31N, S33G, S49A, G50N, K58T, S59G, S99G, H106A
VL: B1 VL with V47L, T51A, L54R, H55A, T94L
B11: 373_H07 (antibody, V domains shown)
VH: B1 VH with D30S, D31S, S49A, K58T, S99G
VL: B1 VL with L30V, V47L, T51A, T52S, H55Q, T94S
B12: 373_B07 (antibody, V domains shown)
VH: B1 VH with D31S, K58T, S99G, H106A
VL: B1 VL with L33V, T51A, L54R, H55A, D93E, T94L
B13: 373_D03 (antibody, V domains shown)
VH: B1 VH with D30S, D31S, K58T, S99G, H106A
VL: B1 VL with L30V, T31S, V47L, T51A, H55A
B14: 371_G02 (antibody, V domains shown)
VH: B1 VH with D31S, S33G, S49A, G50S, K58T, S99G
VL: B1 VL with T31S, V47L, T51A, L54R, H55A, T94L
B15: 368_A02 (antibody, V domains shown)
VH: B1 VH with D31S, S33G, S49A, S99A
VL: B1 VL with L30I, T31S, L33V, T51A, L54R, H55A
B16: 374_A09 (antibody, V domains shown)
VH: B1 VH with D30S, D31S, G50S, S59G, S99G
VL: B1 VL with L33V, V47L, T51A, H55A, T94S
B17: 373_C03 (antibody, V domains shown)
VH: B1 VH with D30S, D31S, S99G, H106A
VL: B1 VL with L30V, T51A, L54R, H55A, T94S
B18: 372_D03 (antibody, V domains shown)
VH: B1 VH with D30S, D31S, S49A, G55S, S99G, H106A
VL: B1 VL with T31S, L33V, T51V, L54R, T94S
B19: 373_E10 (antibody, V domains shown)
VH: B1 VH with D30S, K58T, S99G, H106A
VL: B1 VL with L33V, T51A, L54R, D93E
B20: 373_A01 (antibody, V domains shown)
VH: B1 VH with D30S, D31S, S33G, G50N, K58T, S59G, S99G
VL: B1 VL with L30V, L54R, H55A, D93N, T94L
B21: 373_A09 (antibody, V domains shown)
VH: B1 VH with D31S, S49A, K58T, S99G, H106A
VL: B1 VL with V47L, T51A, H55A
B22: 373_F08 (antibody, V domains shown)
VH: B1 VH with D30S, D31S, K58T, S99G, H106A
VL: B1 VL with V47L, T51A, L54R, H55A
B23: 371_F11 (antibody, V domains shown)
VH: B1 VH with D30S, D31S, K58T, S99G, H106A
VL: B1 VL with L30I, T31S, L33V, V47L, T51V, L54R, H55A, T94L
B24: 373_A03 (antibody, V domains shown)
VH: B1 VH with D30S, S49A, G50N, K58T, S59G, S99G, H106A
VL: B1 VL with T31S, T51A, L54R, H55A, T94N
B25: 367_F06 (antibody, V domains shown)
VH: B1 VH with D30S, D31S, S33G, G50S, G55S, K58T, S99A, H106A
VL: B1 VL with L30S, T31S, L33V, V47L, T51V, L54R, H55A, T94S
B26: 371_F10 (antibody, V domains shown)
VH: B1 VH with D31S, S33G, G55S, K58T, S99G, H106A
VL: B1 VL with L30S, T31S, T51V, L54R, H55A, D93E, T94S
B27: 367_H01 (antibody, V domains shown)
VH: B1 VH with D31S, S33G, S99A, H106A
VL: B1 VL with T51A, L54R, H55A, T94N
B28: 372_G12 (antibody, V domains shown)
VH: B1 VH with D31S, S49A, K58T, S59G, S99G
VL: B1 VL with T51A, L54R, T94S
B29: 373_H03 (antibody, V domains shown)
VH: B1 VH with D30S, D31S, G55S, S99G, H106A
VL: B1 VL with T31S, V47L, L54R, H55A, D93E, T94N
B30: 373_B05 (antibody, V domains shown)
VH: B1 VH with D30S, G50N, S99G, H106A
VL: B1 VL with L30V, T51A, L54R, H55A, D93S, T94N
B31: 372_B02 (antibody, V domains shown)
VH: B1 VH with D30S, D31S, G55S, K58T, S99G, H106A
VL: B1 VL with T31S, L33V, V47L, T51V, H55A, D93E
B32: 372_E01 (antibody, V domains shown)
VH: B1 VH with S59G, S99G, H106A
VL: B1 VL with L30V, T31S, T51A, L54R, T94S
B33: 373_C10 (antibody, V domains shown)
VH: B1 VH with D30S, D31S, S49A, K58T, S99G, H106A
VL: B1 VL with L33V, V47L, T51A, L54R, H55A, T94N
B34: 374_A06 (antibody, V domains shown)
VH: B1 VH with D30S, D31S, G50S, G55S, K58T, S99G
VL: B1 VL with T31S, T51A, L54R, H55A, T94S
B35: 373_D12 (antibody, V domains shown)
VH: B1 VH with D31S, G50S, G55S, S59G, S99G
VL: B1 VL with T31S, L33V, V47L, T51A, L54R, H55A, D93S, T94L
B36: 371_G04 (antibody, V domains shown)
VH: B1 VH with D31S, S99G, H106A
VL: B1 VL with T31S, V47L, T51A, D93E, T94S
B37: 371_G11 (antibody, V domains shown)
VH: B1 VH with D30S, D31S, S33G, G50N, G55S, K58T, S99G, H106A
VL: B1 VL with T31S, L33V, V47L, T51A, H55A, T94S
B38: 371_H06 (antibody, V domains shown)
VH: B1 VH with D31S, S33G, K58T, S99G, H106A
VL: B1 VL with L30S, T31S, T51V, L54R, H55A, T94L
B39: 371_G09 (antibody, V domains shown)
VH: B1 VH with D30S, D31S, S49A, G50N, K58T, S59G, S99G, H106A
VL: B1 VL with T31S, T51A, L54R, H55A, Y92D, D93S
B40: 373_G08 (antibody, V domains shown)
VH: B1 VH with D31S, G50N, K58T, S99G, H106A
VL: B1 VL with V47L, T51A, H55A, T94S
B41: 373_A05 (antibody, V domains shown)
VH: B1 VH with D30S, G55S, S99G
VL: B1 VL with T31S, L33V, T51A, L54R, D93E, T94S
B42: 371_H08 (antibody, V domains shown)
VH: B1 VH with D30S, D31S, S33G, S49A, G50S, S59G, S99G
VL: B1 VL with L30I, T31S, L33V, T51V, L54R, H55A
B43: 373_A12 (antibody, V domains shown)
VH: B1 VH with D30S, D31S, G50S, K58T, S99G, H106A
VL: B1 VL with T51A, L54R, H55A
B44: 373_F12 (antibody, V domains shown)
VH: B1 VH with D30S, D31S, G50N, K58T, S59G, S99G, H106A
VL: B1 VL with L30S, T51A, L54R, H55A, D93E
B45: 371_H10 (antibody, V domains shown)
VH: B1 VH with D30S, D31S, S49A, G55S, S99G
VL: B1 VL with L30S, V47L, T51A, L54R, D93E, T94N

The first test concerns the target Human Fc (human). The experiment in a line: ELISA, negative control.
B1: the optical density is 0.348 OD.
Molecule B2 gave an optical density of 0.251 OD.
Still for that read-out and setting: for B3 the value was 0.351 OD; for B4, 0.255 OD.

For another test, the target named is human Fc (human). The experiment in a line: ELISA, negative control.
B5: the optical density amounted to 0.166 OD.
Molecule B6 gave an optical density of 0.206 OD.
Consider B7, for which the optical density was determined as 0.204 OD.
The same measure, in the same setting: for B8 the value was 0.321 OD; for B9, 0.35 OD; for B10, 0.184 OD.
Still for that read-out and setting: for B11 the value was 0.199 OD; for B12, 0.208 OD; for B13, 0.18 OD.
On the same count and under the same terms, for B14 the value was 0.514 OD.
Consider B15, for which the optical density came out at 0.376 OD.
Turning to B16, the optical density is 0.231 OD.
Molecule B17 had an optical density of 0.171 OD.
For the molecule B18, the optical density was 0.319 OD.
Still for that read-out and setting: the figure for B19 is 0.188 OD; for B20 it is 0.177 OD.
Still for that read-out and setting: for B21 the value was 0.248 OD.
On the same count and under the same terms, the figure for B22 is 0.202 OD; for B23 it is 0.331 OD.
With B24, the optical density turned out to be 0.189 OD.
Still for that read-out and setting: the figure for B25 is 0.265 OD.
Same read-out and setting: the figure for B26 is 0.299 OD.
On the same count and under the same terms, for B27 the value was 0.388 OD; for B28, 0.439 OD; for B29, 0.172 OD.
B30 displayed an optical density of 0.184 OD.
Still for that read-out and setting: for B31 the value was 0.371 OD; for B32, 0.409 OD; for B33, 0.318 OD.
For B34, the optical density was 0.173 OD.
On the same count and under the same terms, the figure for B35 is 0.224 OD.
Still for that read-out and setting: for B36 the value was 0.325 OD; for B37, 0.399 OD; for B38, 0.346 OD.
On the same count and under the same terms, the figure for B39 is 0.315 OD.
Take B40: the optical density amounted to 0.172 OD.
On the same count and under the same terms, for B41 the value was 0.172 OD; for B42, 0.309 OD.
In the case of B43, the optical density is 0.179 OD.
Consider B44, for which the optical density amounted to 0.158 OD.
On the same count and under the same terms, for B45 the value was 0.358 OD.

The record behind these values is patent US20210380703A1.
